Results as given in publication PMC6938514.

Key:
[1] = target: MBPeng-KFLFAK (Escherichia coli | not stated); experiment: SEC; central fractions of the monomeric or dimeric peak incubated for one week at 37 °C, then analytical SEC
[2] = target: MBPeng-KFL_(PYK2) (Escherichia coli | not stated) (UniProt Q14289); experiment: SEC-SAXS; SWING beamline; 20 mM HEPES, 150 mM NaCl, 2 mM DTT, 2 mM maltose; dimer and monomer peaks fitted with models from the crystal structures
[3] = target: MBPeng-KFL_(PYK2) (Escherichia coli | not stated) (UniProt Q14289); experiment: SEC; large-scale Superdex 200 after the amylose column; protein applied at 15 mg/ml; 20 mM HEPES pH 7.5, 150 mM NaCl, 2 mM maltose, 2 mM DTT
[4] = target: MBPeng-KFL_(PYK2) (Escherichia coli | not stated) (UniProt Q14289); experiment: crystal structure; dimeric SEC fractions crystallised by hanging drop at 23 °C, 15 mg/ml, pH 10.5; space group P1

percent of the dimeric fraction converted into monomers after one week at 37 °C [1] | percent of the monomeric fraction converted into dimers after one week at 37 °C [1] | stoichiometry N [2] | stoichiometry N [3] | stoichiometry N [4] | Substance
20% | 20% | – | – | – | MBPeng-KFLFAK (from UniProt Q05397 805-832)
– | – | 2 | 2 | 2 | MBPeng-KFL_(PYK2) (from UniProt Q14289 790-839)
